From patent US20250082755A1 come the findings set out here.

The assay has as its target CD123 expressed on MOLM13 AML cells (UniProt P26951). Nature of the assay: cell-based or functional assay.
UniProt P26951, sequence (P26951 19-378 limits assumed): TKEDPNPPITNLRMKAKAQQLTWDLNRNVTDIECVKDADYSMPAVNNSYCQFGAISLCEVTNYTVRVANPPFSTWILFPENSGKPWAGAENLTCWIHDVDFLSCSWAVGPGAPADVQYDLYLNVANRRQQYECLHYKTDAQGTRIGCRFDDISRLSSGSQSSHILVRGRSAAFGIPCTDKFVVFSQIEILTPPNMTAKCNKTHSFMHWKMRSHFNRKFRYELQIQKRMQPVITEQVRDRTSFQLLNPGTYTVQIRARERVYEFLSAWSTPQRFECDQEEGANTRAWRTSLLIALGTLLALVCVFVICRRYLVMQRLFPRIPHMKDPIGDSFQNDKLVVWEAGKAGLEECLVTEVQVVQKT

For IL3-K110E-41BBcostim (receptor), the TIB153 % CD69 activation: MOLM-13-WT/MOLM-13 CD123KO came to 1.28.

Turning to “IL3-WT-41BBcostim (SEQ ID NO: 25) (receptor)”, the CD69 activation, Average MOLM13-WT fold change over MOLM-CD123KO came out at 3.84 fold; the CD69 activation, MOLM13 fold change over MOLM-CD123KO, Replicate 1 was determined as 4.74 fold; the CD69 activation, MOLM13 fold change over MOLM-CD123KO, Replicate 2 is 2.94 fold; the TIB153 % CD69 activation: MOLM-13-WT/MOLM-13 CD123KO came to 4.74.

With “IL3-K110E-nocostim (SEQ ID NO: 27) (receptor)”, the TIB153 % CD69 activation: MOLM-13-WT/MOLM-13 CD123KO was 1.06.

“IL3-K110E-CD28costim (SEQ ID NO: 29) (receptor)”: the TIB153 % CD69 activation: MOLM-13-WT/MOLM-13 CD123KO was determined as 1.03.
